# Paper PMC12743511, “HSD17β11 regulates PLIN5-ATGL mediated lipolysis, but not hepatic lipid metabolism in mice” (Journal of Lipid Research, 2025)
# B1: HSD17β11-YFP (hydroxysteroid 17β dehydrogenase 11 fused to YFP) (natural protein, UniProt Q8NBQ5 1-300, looked up)
# chain: MKFLLDILLLLPLLIVCSLESFVKLFIPKRRKSVTGEIVLITGAGHGIGRLTAYEFAKLKSKLVLWDINKHGLEETAAKCKGLGAKVHTFVVDCSNREDIYSSAKKVKAEIGDVSILVNNAGVVYTSDLFATQDPQIEKTFEVNVLAHFWTTKAFLPAMTKNNHGHIVTVASAAGHVSVPFLLAYCSSKFAAVGFHKTLTDELAALQITGVKTTCLCPNFVNTGFIKNPSTSLGPTLEPEEVVNRLMHGILTEQKMIFIPSSIAFLTTLERILPERFLAVLKRKISVKFDAVIGYKMKAQ
# notes: hydroxysteroid 17β dehydrogenase 11 (HSD17β11), wild type; FRET acceptor; also called HSD^WT-YFP; source: transiently transfected (Lipofectamine 3000), in live cells
# Biological target: T1, PLIN5-CFP (perilipin 5 fused to CFP) (UniProt Q00G26 1-463)
# T1 construct: perilipin 5 (PLIN5); FRET donor; source: transiently transfected (Lipofectamine 3000), in live cells
# T1 sequence (looked up): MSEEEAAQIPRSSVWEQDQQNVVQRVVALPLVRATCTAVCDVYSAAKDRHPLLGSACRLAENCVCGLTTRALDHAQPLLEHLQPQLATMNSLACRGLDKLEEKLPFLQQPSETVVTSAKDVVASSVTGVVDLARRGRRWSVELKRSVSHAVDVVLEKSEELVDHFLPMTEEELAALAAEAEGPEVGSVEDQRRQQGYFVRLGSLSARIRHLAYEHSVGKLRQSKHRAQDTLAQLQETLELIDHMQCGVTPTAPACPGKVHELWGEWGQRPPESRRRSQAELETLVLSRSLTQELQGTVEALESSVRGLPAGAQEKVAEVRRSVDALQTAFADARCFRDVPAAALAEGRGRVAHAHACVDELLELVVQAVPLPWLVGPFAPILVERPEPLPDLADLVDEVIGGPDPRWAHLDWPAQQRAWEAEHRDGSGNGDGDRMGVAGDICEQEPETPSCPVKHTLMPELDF
# Test: FRET or BRET; FLIM-FRET with phasor analysis in live transfected cells, CFP donor and YFP acceptor, 37°C, 5% CO2; basal and forskolin (PKA) stimulated; ATGL-CFP with PLIN5-YFP in WT and HSD^KO cells; read-out FRET ratio (pixels with FRET / pixels without)
# Details: partners not purified
binder,measurement,value
B1,fold increase in FRET ratio over donor alone,2.5 fold
